Molecular target: COPI coatomer (heptameric complex) (Chlamydomonas reinhardtii (endogenous in C. reinhardtii cells))
Test: cryo-EM structure; in situ cryo-electron tomography of cryo-FIB milled vitrified C. reinhardtii cells, reference-free subtomogram averaging of the COPI triad with three-fold symmetry, 20 Å; PDB 5A1U fitted as a rigid body; separate averages of buds, vesicles and Golgi regions

stoichiometry N: 3
Substance: COPI coatomer (heptameric complex)

Reference: article PMC5716667
